Assay: label from the status in PepcDB records
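Also: failed if final PepcDB status was selected cloned or expressed and not failed if soluble or beyond.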

Row | Sequence | protein production
1 | KSEKRMKLTLKGGAAVDPDSGLEHSAHVLEKGGKVFSATLGLVDIVKGTNSYYKLQLLEDDKENRYWIFRSWGRVGTVIGSNKLEQMPSKEDAIEHFMKLYEEKTGNAWHSKNFTKYPKKFYPLEI | not failed
2 | KSPVREPVDNLSPEERDARTVFCMQLAARIRPRDLEDFFSAVGKVRDVRIISDRNSRRSKGIAYVEFCEIQSVPLAIGLTGQRLLGVPIIVQASQAEKNRL | not failed
3 | KTFAALGSGVIGSGWIARALAHGLDVVAWDPAPGAEAALRARVANAWPALRKQGLAPGAAQERLRFVASIEECVGDADFIQESAPERLDLKLDLHARISAAARPDVLIGSSTSGLLPSEFYAEASHPERCLVGHPFNPVYLLPLVEVVGGERTAAEAVRAAMRVYESLGMRPLHVRKEVPGFIADRLLEALWREALHLVNDGVATTGEIDDAIRFGAGLRWSFMGTFLTYTLAGGNAGMRHFMAQFGPALQLPWTYLPAPELTEALIDRVVEGTAEQQGARSIAELERYRDDCLLAVLGAIRETKARHGFA | failed
4 | KTPIQVLHEYGMKTKNIPVYECERSDVQIHVPTFTFRVTVGDITCTGEGTSKKLAKHRAAEAAINILKANA | not failed
5 | KVKSGWLDKLSPQGKRMFQKRWVKFDGLSISYYNNEKEMYSKGIIPLSAISTVRVQGDNKFEVVTTQRTFVFRVEKEEERNDWISILLNALKSQSLTSQSQA | not failed
6 | KVVFAKEQPAHREVQAEAGASATLSCEVAQAQTEVTWYKDGKKLSSSSKVRVEAVGCTRRLVVQQAGQAEAGEYSCEAGGQQLSFRLQVAGQCFG | not failed
7 | LAAESQADYLGFIFAESKRKVSPEDVKKWLNQVRVEKQVAGVFVNESIETMSRIAKSLKLDVIQLHGDEKPADVAALRKLTGCEIWKALHHQDNTTQEIARFKDNVDGFVIDSSVKGSRGGTGVAFSWDCVPEYQQAAIGKRCFIAGGVNPDSITRLLKWQPEGIDLASGIEKNGQKDQNLMRLLEERMNRYVSISE | failed
8 | LAPPRHLGFSDVSHDAARVFWEGAPRPVRLVRVTYVSSEGGHSGQTEAPGNATSAMLGPLSSSTTYTVRVTCLYPGGGSSTLTGRVTTKKAPSPS | not failed
9 | LDDLSEFVDQVPLLDHHCHFLIDGKVPNRDDRLAQVSTEADKDYPLADTKNRLAYHGFLALAKEFALDANNPLAAMNDPGYATYNHRIFGHFHFKELLIDTGFVPDDPILDLDQTAELVGIPVKAIYRLETHAEDFMLEHDNFAAWWQAFSNDVKQAKAHGFVGFKSIAAYRVGLHLEPVNVIEAAAGFDTWKHSGEKRLTSKPLIDYMLYHVAPFIIAQDMPLQFHVGYGDADTDMYLGNPLLMRDYLKAFTKKGLKVVLLHCYPYHREAGYLASVFPNLYFDISLLDNLGPSGASRVFNEAVELAPYTRILFASDASTYPEMYGLAARQFKQALVAHFNQLPFVDLAQKKAWINAICWQTSAKLYHQERELRV | not failed
10 | LEDFNVTSKVIELDVRKPTPEAAENLNIGMDEDIYYVKRVRYINGQTLCYEESYYTKSIVTYLNNEIVSHSIFHYIREGLGLKIGFSDLFLHVGQLNEEEAEYLGLEAGLPKLYIESIFHLTNGQPFDYSKISYNYEQSQFVVQANSFLL | failed
11 | LESSMNKFHALFDSVMDACVIIDKRGVIKECNAALQTLLGVEDKTALVGTSLTQFHLADTFMGSAVQIAQSVEDVLKQGLLKFEADITDSQGQSIPAEVTLKSIELNTERFVLATYHNLAERRLVDRLIRHERNLLKNVLGMSPIGVWVCVNGTCRYVNAQMTLM | failed
12 | LGTLFFSLEYNFERKAFVVNIKEARGLPAMDEQSMTSDPYIKMTILPEKKHKVKTRVLRKTLDPAFDETFTFYGIPYTQIQELALHFTILSFDRFSRDDIIGEVLIPLSGIELSEGKMLMNREII | not failed
13 | LKKAGGALIAGVLKNGPADDAGIKPGDVLVAVNGKPIFNSSEMLNMVASLAPGKSATLTILRHGGQQDIQVRIGKRPS | failed
14 | LLADGQLQDWHDSTVYEIYHHWRHRYPKGVFENREHLFSAEIPRDTPIALQPEEHVSYGWFDMEEAAEKVFSPSNRRAILELGRFLGKR | failed
15 | LLHGDFELAVPGGPVAAYYAAPAGREQLPIVLVVQEIFGLHEHIKDVCRRLAHDGYLAVSVNLYQRQGDASRYDNIPGLVAELVSKVPDEQVHADLDASLAWAAAHGGDGARVGVTGFCWGGRTTWMYAARNPAVKAGVAWYGRLSSGHGPLIKQVPLDVAGSLHAPVLGLYGGKDESIPLDDVRAMEARLQQGGAPAQASRIVVYPQAGHAFLADYRPSYRAADAQDGWRRMLDWFALYL | not failed
16 | LLLEIGLEEMPARFLNESMVQLGDKLTGWLKEKNITHGEVKLFNTPRRLAVFVKDVAEKQDDIKEEAKGPAKKIALDADGNWTKAAIGFSKGQGANVEDLYIKEVKGIEYVFVQKFQAGQETKSLLPELSGLITSLHFPKNMRWGNEDLRYIRPIKWIVALFGQDVIPFSITNVESGRTTQGHRFLGHEVSIESPSAYEEQLKGQHVIADPSVRKQMIQSQLETMAAENNWSIPVDEDLLDEVNHLVEYPTALYGSFESEFLSIPEEVLVTTMKEHQRYFPVKDKNGDLLPHFITVRNGNSHAIENVARGNEKVLRARLSDASFFYKEDQKLNIDANVKKLENIVFHEELGSLADKVRRVTSIAEKLAVRLQADEDTLKHVKRAAEISKFDLVTHMIYEFPELQGIMGEKYARMLGEDEAVAAAVNEHYMPRSAGGETPSTFTGAVVAMADKLDTIASFFSIGVIPTGSQDPYGLPRQASGIVAILLDRNWGISFEELLTFVQTDKENELLDFFTQRLKYVLNAEQIRHDVIDAVLESSELE | not failed
17 | LNHVAEELCAATNESEVFSIITRSASHIISAQRISYCVPNYKDKCFEIRSVFSENEVMKSATVDMENSALQFVLQSGSPQFFENLAVTNFTDHLILSKNGLCSGWSVPVRVKGEIVGLLNAASNVKINERAQQLGVIKMLSGIMGVTLSRVNLQEQLEHQ | failed
18 | LNKEGEVERLLGINMDMTEVKQLNEALFQEKERLHITLDSIGEAVVCIDMAMKITFMNPVAEKMSGWTQEEALGVPLLTVLHITFGDNGPLMENIYSADTSRSAIEQDVVLHCRSGGSYDVHYSITPLSTLD | failed
19 | LQTALARLGQWGILSRDLYGFFDQATELIRTALGVDYCGLWELLPNRSALVLCAGDGWDKALVGNYTIDATNRSYAGYTIQHNGDRRMEDYEPIVELDLRISTKFRASPLLHNLGIVSGINLMVAGPRTAFGVLGVYSLTARKFTEEEIEFLKVASHILAAAIDRQEYEERLLLLQQAIDASS | failed
20 | LQTLCDILRADPADSRTLTELGREIGASDRTLSRLFRSELGMTFPQWRTQLRLHHALVLLADSTPVTAVAHLCGWSSASAFIDAFRRTFGHTPGARPRD | failed
21 | LQTSRDLLSSVLSSSLDGIIVFSAIRSAGDTIADFECVLVNPQAEKLFESTAEDIVGMRLREDMPRQEEKGLFEAYREVVETGEPAEMEVHYDTDGQDVWFQVMAVKVENGVAVTYRDITDRKEAERQIREQAQLLDKA | failed
22 | LRESEARFRMMADTSPIMLWVADQDKKMTFVNQSWLEFRGATLAEESGNGYLEGIHPDDKGHYLGVYSQAFGDRRRFELEYRYRRVDQQYRWIVNVGVPRYLEDGKFMGYVGSCLDITDRKQAQDILQKKLNQILLMRKISQEIRRSLQPTLIFQTAARQVGNVFAVSRCLIHNYSEATTLQVPVVAEYLGGQFTSLLAGEIAVEQAYDPTIIQGDRAMAVVDLDQDLNSTHTKAFYQRFQVKSFLAVRTSYQGKANGIIALHQCDRQRVWTADEIELLEAIAEQMGIALAQAALLEKERERRRELAQKNLELEKATWAAEAANRAKGEFLAMMSHEIRTPMNGVIGMT | failed
23 | LRESEARLKGIAGNVPGLVFRLERDPAEGDLEFPYISEGSEALVGYAPSEIQHPQMGLRNLVHPEDRADYHRVQDLALASDQDWSWQGRILTRQGEQRWADIKASARHLGNGQVVWDGVVWDITQGKRAELALAKSQEQLRELSAHLESVREEEKARIAREVHDELGQM | not failed
24 | LRESKRFIEQVISHSPQLLYIFEPTTGSNIYLNGQSVDILGYTPEEIKARGVKFFLDVLHPDDLYLLERNLNYWQNAADGEVLTTEWRMKHKNGSWRWLRSRDVVFARDENHFPCKVLGTTQDITDSKLAELE | failed
25 | LTECLSQGEDIRLSKILIFAGTTEGRKLSEHLCKRGIEHTVCVATEYGEIVLHENPFAHVHMGRMDSEGMRSFFAEQKCKLIVDATHPYAAIVTENIKQAVYAFNEAHAVTDNQADSSISENIEYVRLKRDTDISADYDNIRYFEDNEACAKALNNTDGNILLTTGSKELSVYCKTSDVRERLYVRVLPGLESISLCMHNDITGKHILALQGPFSTQLNEALIDQYDIRCLVTKKSGAAGGFIEKIAAAKNKNIPVYIVGQSVQDDGMSFEAVCEYIDSKYNKLHIMLAGIGMGNDACMTKAVSDAIESADIILGASRMIEKYSAKIDKKPYYLAEQIIPYLYEICADTAKISNVLILFSGDTGFYSGSRKLYLAIKNEISEGKLNADVSILPGISSVSYMAAAVGETYNDAYICSIHGVKLSNITSRISHHAKTFMLMSGVRDVNMLGHLLSSDERYGLQKCSVTVGYQLSYPDENISQLSPQECTKLKREGLYICMIKNPNPVAKNVTPQLSDAAFIREKVPMTKEEIRHVSICKLHLKSDSVLYDVGSGTGSIAVEAASLSDDMEVYAIEQKENAVQLITKNKEKHGLENIHVINAKAPDGMENLPVPTHAFIGGSSGNLKEIIEALKAKNPHIRIVINAISMETICEIKEIMSAYNVKNEDIVQLQVSRSKQIGHYHLMQAENPVWICSFEF | failed
26 | MAAAAAAAAAAGAAGGRGSGPGRRRHLVPGAGGEAGEGAPGGAGDYGNGLESEELEPEELLLEPEPEPEPEEEPPRPRAPPGAPGPGPGSGAPGSQEEEEEPGLVEGDPGDGAIEDPELEAIKARVREMEEEAEKLKELQNEVEKQMNMSPPPGNAGPVIMSIEEKMEADARSIYVGNVDYGATAEELEAHFHGCGSVNRVTILCDKFSGHPKGFAYIEFSDKESVRTSLALDESLFRGRQIKVIPKRTNRPGISTTDRGFPRARYRARTTNYNSSRSRFYSGFNSRPRGRVYRGRARATSWYSPY | failed
27 | MAAAGAPDGMEEPSMDTEAEAVATEAPARPLNCVEAEAVVGTAAEDSCDARGNLQPAPAQPPGDPAAQASVSNGEDAGGGAGRELVDLKIIWNKTKHDVKVPLDSTGSELKQKIHSITGLPPAMQKVMYKGLVPEDKTLREIKVTSGAKIMVVGSTINDVLAVNTPKDAAQQDAKAEESKKEPLCRQKQHRKVLDKGKPEDVMPSVKGAQERLPTVPLSGMYNKSGGKVRLTFKLEQDQLWIGTKERTEKLPMGSIKNVVSEPIEGHEDYHMMAFQLGPTEASYYWVYWVPTQYVDAIKDTVLGKWQYF | failed
28 | MAAAPASDVCGGGSKKNCSGRRMSDAAPPVSSPPPRQKGLLGVVERLGNLLPEPVMIFVWLILGLMVLSAIGQALGWSASITYAGDEAPQFGELENGVLTYAASSLFSEANLARLFTEMPKTLTSFAPLGLVLVVILGAAVAERSGLFSALIRASLREAPKRILTPLVVIIGMVSHHASDAAYVVFIPLAGLLYAAVGRHPLAGIAAGFAAVSGGFAGNLTPGQFDVVLFGFTQEAARIIDPTWTMNPLGNWWYILAIVVVFTPIAWFLTDKVVEPRLGPWGGQADDALKAELAKSAVTADEKRGLKFAGLAALAIVALFAALSLIPGFTPLIDETKTGPAQLTPFYGALIAGFMMLFLAGGVAYGVGVGTVKTEGDVVNMMADGVRSVAPYIVFAFFAAHFVAMFNWSRLGPIAAIHGAETLKAMNLPAPLLLVSVLGFSSVLDLFIGSASAKWSALAPVVVPMFMLLGISPEMTTAAYRMGDSFTNLMTPLMSYFPLVLAMTRRWDPSMGVGSLLALMLPYALAFMVAGVAMTLAWVAFDWPLGPAAQVHYTPPGGLLK | failed

— a protein production outcome set (Wang et al. 2014)
